Source: patent US20190071490A1 (BETH ISRAEL DEACONESS MEDICAL CENTER, published 2019)

T1: human α-CGRP 1-37 (WT) (human, C-terminal amide; N-terminal biotin when captured on the SA chip; 125I-labelled in the radioligand assay)
T1 construct: also called α-human
T1 peptide: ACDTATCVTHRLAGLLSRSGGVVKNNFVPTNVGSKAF

T2: rat α-CGRP (1-37) (rat, C-terminal amide; N-terminal biotin when captured on the SA chip)
T2 construct: also called rat α (1-37); α-rat
T2 peptide: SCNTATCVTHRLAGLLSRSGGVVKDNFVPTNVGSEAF


Tests used:
human α-CGRP 1-37 (WT) = molecular target: T1, human α-CGRP 1-37 (WT); test: Biacore, 37°C, Fab over CGRP on SA chip
Protocol: (§1) Biacore assay for affinity determination. […] All Biacore assays were conducted in HBS-EP running buffer (10 mM HEPES pH 7.4, 150 mM NaCl, 3 mM EDTA, 0.005% v/v polysorbate P20). CGRP surfaces were prepared by diluting the N-biotinylated CGRP to a concentration of less than 0.001 mg/mL into HBS-EP buffer and injecting it across the SA sensor chip using variable contact times. […] Samples were typically injected for 1 minute at 100 μL/min and dissociation times of at least 10 minutes were allowed. […] An entire titration series (typically generated in duplicate) was fit globally to a 1:1 Langmuir binding model using the BIAevaluation program. This returned a unique pair of association and dissociation kinetic rate constants (respectively, kₒₙ and koff) for each binding interaction, whose ratio gave the equilibrium dissociation constant (KD=koff/kₒₙ). […]

rat α-CGRP (1-37) = molecular target: T2, rat α-CGRP (1-37); test: Biacore, 37°C, Fab over CGRP on SA chip
Protocol: as §1

Row | Kd (human α-CGRP 1-37 (WT)) [nM] | koff (human α-CGRP 1-37 (WT)) [s⁻¹] | Kd (rat α-CGRP (1-37)) [nM] | koff (rat α-CGRP (1-37)) [s⁻¹] | Binder
1 | 3.25 | 0.00052 | 284 | 0.00511 | G1 variant M66 Fab (Fab, V domains shown, Fab; constant domains as m1; printed L561 read as L56I) VH: EVQLVESGGGLVQPGGSLRLSCAASGFTFSNYWISWVRQAPGKGLEWVAEIRSKSDESATHYAEAVKGRFTISRDNAKNSLYLQMNSLRAEDTAVYYCTVYFDYGLAIQNYWGQGTLVTVSS VL: EIVLTQSPATLSLSPGERATLSCKASKNVGTYVSWYQQKPGQAPRLLIYGASNRYIGIPARFSGSGSGTDFTLTISSLEPEDFAVYYCSQSYNYPYTFGQGTKLEIK
2 | 8.19 | 0.00131 | 9280 | 0.167 | G1 variant M78 Fab (Fab, V domains shown, Fab; constant domains as m1) VH: EVQLVESGGGLVQPGGSLRLSCAASGFTFSNYWISWVRQAPGKGLEWVAEIRSKSDNTATHYAEAVKGRFTISRDNAKNSLYLQMNSLRAEDTAVYYCTVYFDYGLAIQNYWGQGTLVTVSS VL: EIVLTQSPATLSLSPGERATLSCKASKNVSTYVSWYQQKPGQAPRLLIYAASNRYTGIPARFSGSGSGTDFTLTISSLEPEDFAVYYCSQSYNYPYTFGQGTKLEIK
3 | 2.5 | 0.0004 | 219 | 0.00395 | G1 variant M72 Fab (Fab, V domains shown, Fab; constant domains as m1) VH: EVQLVESGGGLVQPGGSLRLSCAASGFTFSNYWISWVRQAPGKGLEWVAEIRSKSDASATHYAEAVKGRFTISRDNAKNSLYLQMNSLRAEDTAVYYCTVYFDYGLAIQNYWGQGTLVTVSS VL: EIVLTQSPATLSLSPGERATLSCKASKNVGTYVSWYQQKPGQAPRLLIYGASNRYSGIPARFSGSGSGTDFTLTISSLEPEDFAVYYCSQSYNYPYTFGQGTKLEIK
4 | 2.28 | 0.000364 | 64.4 | 0.00116 | G1 variant M76 Fab (Fab, V domains shown, Fab; constant domains as m1) VH: EVQLVESGGGLVQPGGSLRLSCAASGFTFSNYWISWVRQAPGKGLEWVAEIRSESDGSATHYAEAVKGRFTISRDNAKNSLYLQMNSLRAEDTAVYYCTVYFDYGLAIQNYWGQGTLVTVSS VL: EIVLTQSPATLSLSPGERATLSCKASKNVSTYVSWYQQKPGQAPRLLIYAASNRYTGIPARFSGSGSGTDFTLTISSLEPEDFAVYYCSQSYNYPYTFGQGTKLEIK
5 | 2.68 | 0.000428 | 376 | 0.00676 | G1 variant M68 Fab (Fab, V domains shown, Fab; constant domains as m1; printed L561 read as L56I) VH: EVQLVESGGGLVQPGGSLRLSCAASGFTFSNYWISWVRQAPGKGLEWVAEIRSKSDNDATHYADAVKGRFTISRDNAKNSLYLQMNSLRAEDTAVYYCTVYFDYGLAIQNYWGQGTLVTVSS VL: EIVLTQSPATLSLSPGERATLSCKASKNVGTYVSWYQQKPGQAPRLLIYGASNRYIGIPARFSGSGSGTDFTLTISSLEPEDFAVYYCSQSYNYPYTFGQGTKLEIK
6 | 3.49 | 0.000559 | 337 | 0.00607 | G1 variant M70 Fab (Fab, V domains shown, Fab; constant domains as m1; printed L561 read as L56I) VH: EVQLVESGGGLVQPGGSLRLSCAASGFTFSNYWISWVRQAPGKGLEWVAEIRSKSDSSATHYAEAVKGRFTISRDNAKNSLYLQMNSLRAEDTAVYYCTVYFDYGLAIQNYWGQGTLVTVSS VL: EIVLTQSPATLSLSPGERATLSCKASKNVGTYVSWYQQKPGQAPRLLIYGASNRYIGIPARFSGSGSGTDFTLTISSLEPEDFAVYYCSQSYNYPYTFGQGTKLEIK
7 | 2.98 | 0.000477 | 794 | 0.0143 | G1 variant M77 Fab (Fab, V domains shown, Fab; constant domains as m1) VH: EVQLVESGGGLVQPGGSLRLSCAASGFTFSNYWISWVRQAPGKGLEWVAEIRSKSDDSATHYAEAVKGRFTISRDNAKNSLYLQMNSLRAEDTAVYYCTVYFDYGLAIQNYWGQGTLVTVSS VL: EIVLTQSPATLSLSPGERATLSCKASKNVSTYVSWYQQKPGQAPRLLIYAASNRYTGIPARFSGSGSGTDFTLTISSLEPEDFAVYYCSQSYNYPYTFGQGTKLEIK
8 | 8.06 | 0.00129 | 10600 | 0.19 | G1 variant M79 Fab (Fab, V domains shown, Fab; constant domains as m1) VH: EVQLVESGGGLVQPGGSLRLSCAASGFTFSNYWISWVRQAPGKGLEWVAEIRSKSDPSATHYAEAVKGRFTISRDNAKNSLYLQMNSLRAEDTAVYYCTVYFDYGLAIQNYWGQGTLVTVSS VL: EIVLTQSPATLSLSPGERATLSCKASKNVSTYVSWYQQKPGQAPRLLIYAASNRYTGIPARFSGSGSGTDFTLTISSLEPEDFAVYYCSQSYNYPYTFGQGTKLEIK
9 | 3.06 | 0.00049 | 238 | 0.00429 | G1 variant M81 Fab (Fab, V domains shown, Fab; constant domains as m1) VH: EVQLVESGGGLVQPGGSLRLSCAASGFTFSNYWISWVRQAPGKGLEWVAEIRSKSDNEATHYAEAVKGRFTISRDNAKNSLYLQMNSLRAEDTAVYYCTVYFDYGLAIQNYWGQGTLVTVSS VL: EIVLTQSPATLSLSPGERATLSCKASKNVSTYVSWYQQKPGQAPRLLIYGASNRYSGIPARFSGSGSGTDFTLTISSLEPEDFAVYYCSQSYNYPYTFGQGTKLEIK
10 | 1.59 | 0.000255 | 167 | 0.003 | G1 variant M73 Fab (Fab, V domains shown, Fab; constant domains as m1) VH: EVQLVESGGGLVQPGGSLRLSCAASGFTFSNYWISWVRQAPGKGLEWVAEIRSKSDNYATHYADAVKGRFTISRDNAKNSLYLQMNSLRAEDTAVYYCTVYFDYGLAIQNYWGQGTLVTVSS VL: EIVLTQSPATLSLSPGERATLSCKASKNVGTYVSWYQQKPGQAPRLLIYGASNRYSGIPARFSGSGSGTDFTLTISSLEPEDFAVYYCSQSYNYPYTFGQGTKLEIK
11 | 13.1 | 0.00209 | 5520 | 0.0993 | G1 variant M80 Fab (Fab, V domains shown, Fab; constant domains as m1; printed L561 read as L56I) VH: EVQLVESGGGLVQPGGSLRLSCAASGFTFSNYWISWVRQAPGKGLEWVAEIRSKSDNVATHYAEAVKGRFTISRDNAKNSLYLQMNSLRAEDTAVYYCTVYFDYGLAIQNYWGQGTLVTVSS VL: EIVLTQSPATLSLSPGERATLSCKASKNVSTYVSWYQQKPGQAPRLLIYGASNRYIGIPARFSGSGSGTDFTLTISSLEPEDFAVYYCSQSYNYPYTFGQGTKLEIK
12 | 5.13 | 0.00082 | 95 | 0.00171 | G1 variant M67 Fab (Fab, V domains shown, Fab; constant domains as m1; printed L561 read as L56I) VH: EVQLVESGGGLVQPGGSLRLSCAASGFTFSNYWISWVRQAPGKGLEWVAEIRSKSDFSATHYAEAVKGRFTISRDNAKNSLYLQMNSLRAEDTAVYYCTVYFDYGLAIQNYWGQGTLVTVSS VL: EIVLTQSPATLSLSPGERATLSCKASKNVGTYVSWYQQKPGQAPRLLIYGASNRYIGIPARFSGSGSGTDFTLTISSLEPEDFAVYYCSQSYNYPYTFGQGTKLEIK
13 | 3.73 | 0.000597 | 335 | 0.00603 | G1 variant M74 Fab (Fab, V domains shown, Fab; constant domains as m1) VH: EVQLVESGGGLVQPGGSLRLSCAASGFTFSNYWISWVRQAPGKGLEWVAEIRSKSDSSATHYAEAVKGRFTISRDNAKNSLYLQMNSLRAEDTAVYYCTVYFDYGLAIQNYWGQGTLVTVSS VL: EIVLTQSPATLSLSPGERATLSCKASKNVGTYVSWYQQKPGQAPRLLIYGASNRYSGIPARFSGSGSGTDFTLTISSLEPEDFAVYYCSQSYNYPYTFGQGTKLEIK
14 | 4.58 | 0.000733 | 101 | 0.00181 | G1 variant M69 Fab (Fab, V domains shown, Fab; constant domains as m1; printed L561 read as L56I) VH: EVQLVESGGGLVQPGGSLRLSCAASGFTFSNYWISWVRQAPGKGLEWVAEIRSKSDNEATHYAEAVKGRFTISRDNAKNSLYLQMNSLRAEDTAVYYCTVYFDYGLAIQNYWGQGTLVTVSS VL: EIVLTQSPATLSLSPGERATLSCKASKNVGTYVSWYQQKPGQAPRLLIYGASNRYIGIPARFSGSGSGTDFTLTISSLEPEDFAVYYCSQSYNYPYTFGQGTKLEIK
15 | 7.25 | 0.00116 | 1040 | 0.0187 | G1 variant M75 Fab (Fab, V domains shown, Fab; constant domains as m1) VH: EVQLVESGGGLVQPGGSLRLSCAASGFTFSNYWISWVRQAPGKGLEWVAEIRSKSDVSATHYAEAVKGRFTISRDNAKNSLYLQMNSLRAEDTAVYYCTVYFDYGLAIQNYWGQGTLVTVSS VL: EIVLTQSPATLSLSPGERATLSCKASKNVGTYVSWYQQKPGQAPRLLIYGASNRYSGIPARFSGSGSGTDFTLTISSLEPEDFAVYYCSQSYNYPYTFGQGTKLEIK
16 | 8 | 0.00128 | 118 | 0.00212 | G1 variant M71 Fab (Fab, V domains shown, Fab; constant domains as m1; printed L561 read as L56I) VH: EVQLVESGGGLVQPGGSLRLSCAASGFTFSNYWISWVRQAPGKGLEWVAEIRSKSDYSATHYAEAVKGRFTISRDNAKNSLYLQMNSLRAEDTAVYYCTVYFDYGLAIQNYWGQGTLVTVSS VL: EIVLTQSPATLSLSPGERATLSCKASKNVGTYVSWYQQKPGQAPRLLIYGASNRYIGIPARFSGSGSGTDFTLTISSLEPEDFAVYYCSQSYNYPYTFGQGTKLEIK
17 | 5.48 | 0.000877 | 388 | 0.00699 | G1 variant M82 Fab (Fab, V domains shown, Fab; constant domains as m1) VH: EVQLVESGGGLVQPGGSLRLSCAASGFTFSNYWISWVRQAPGKGLEWVAEIRSESDNSATHYAEAVKGRFTISRDNAKNSLYLQMNSLRAEDTAVYYCTVYFDYGLAIQNYWGQGTLVTVSS VL: EIVLTQSPATLSLSPGERATLSCKASKNVVTYVSWYQQKPGQAPRLLIYGHSNRYTGIPARFSGSGSGTDFTLTISSLEPEDFAVYYCSQSYNYPYTFGQGTKLEIK
